This note sets out measurements from patent US20260250421A1 (BIOCYTOGEN PHARMACEUTICALS BEIJING, published 2026).

Experiment in all cases: SPR Biacore 8K, Ab on Protein A chip
In general terms: SPR reads the build-up and loss of mass on a sensor chip optically.

Experiment [1] deals with T1, His-tagged human TROP2 protein (human, UniProt P09758 27-274).
T1 construct: Bought protein; also called hTROP2-His; ACRO Biosystems Cat# TR2-H5223; not shown: His tag
T1 sequence (looked up): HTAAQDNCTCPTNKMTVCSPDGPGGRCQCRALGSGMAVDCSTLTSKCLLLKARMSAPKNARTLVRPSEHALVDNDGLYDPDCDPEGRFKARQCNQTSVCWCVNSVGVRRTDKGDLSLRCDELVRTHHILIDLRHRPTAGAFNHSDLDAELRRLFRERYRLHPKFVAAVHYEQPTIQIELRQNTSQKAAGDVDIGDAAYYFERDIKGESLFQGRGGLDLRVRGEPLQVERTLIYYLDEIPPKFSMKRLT
On the procedure: (§1) The affinity of the anti-TROP2 antibodies to His-tagged human TROP2 protein (hTROP2-His, ACRO Biosystems Inc., Cat #: TR2-H5223), His-tagged cynomolgus monkey TROP2 protein (cTROP2-His, ACRO Biosystems Inc., Cat #: TR2-R52H3) and His-tagged dog TROP2 protein (dTROP2-His, ACRO Biosystems Inc., Cat #: TR2-C52H4) were measured by surface plasmon resonance (SPR) using Biacore™ (Biacore, INC, Piscataway N.J.) 8K biosensor equipped with pre-immobilized Protein A sensor chips.
(§2) Purified anti-TROP2 antibodies were diluted to 1 μg/mL and then injected into the Biacore™ 8K biosensor at 10 μL/min for about 50 seconds to achieve a desired protein density (e.g., about 350 response units (RU)). The His-tagged TROP2 protein at a concentration of 200 nM was then injected at 30 μL/min for 180 seconds. Dissociation was monitored for 400 seconds. The chip was regenerated after the last injection of each titration with glycine (pH 2.0, 30 μL/min for 30 seconds).

Experiment [2] concerns the target T2, His-tagged monkey TROP2 protein (cynomolgus monkey; Rhesus …, UniProt A0A5F8AGB8 27-274).
T2 construct: also called cTROP2-His; ACRO Biosystems Cat# TR2-R52H3
T2 sequence: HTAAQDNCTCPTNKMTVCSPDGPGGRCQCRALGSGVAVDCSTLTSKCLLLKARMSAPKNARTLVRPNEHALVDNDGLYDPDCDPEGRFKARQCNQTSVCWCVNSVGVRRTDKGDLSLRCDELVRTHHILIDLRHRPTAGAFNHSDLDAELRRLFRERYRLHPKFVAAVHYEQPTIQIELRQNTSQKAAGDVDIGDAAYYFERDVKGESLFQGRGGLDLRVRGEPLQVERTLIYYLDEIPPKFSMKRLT
On the procedure:
as §1, §2

For experiment [3], the target named is T3, His-tagged human PTK7 protein (human, UniProt Q13308 31-704).
T3 construct: Bought protein; also called hPTK7-His; not shown: His tag
T3 sequence: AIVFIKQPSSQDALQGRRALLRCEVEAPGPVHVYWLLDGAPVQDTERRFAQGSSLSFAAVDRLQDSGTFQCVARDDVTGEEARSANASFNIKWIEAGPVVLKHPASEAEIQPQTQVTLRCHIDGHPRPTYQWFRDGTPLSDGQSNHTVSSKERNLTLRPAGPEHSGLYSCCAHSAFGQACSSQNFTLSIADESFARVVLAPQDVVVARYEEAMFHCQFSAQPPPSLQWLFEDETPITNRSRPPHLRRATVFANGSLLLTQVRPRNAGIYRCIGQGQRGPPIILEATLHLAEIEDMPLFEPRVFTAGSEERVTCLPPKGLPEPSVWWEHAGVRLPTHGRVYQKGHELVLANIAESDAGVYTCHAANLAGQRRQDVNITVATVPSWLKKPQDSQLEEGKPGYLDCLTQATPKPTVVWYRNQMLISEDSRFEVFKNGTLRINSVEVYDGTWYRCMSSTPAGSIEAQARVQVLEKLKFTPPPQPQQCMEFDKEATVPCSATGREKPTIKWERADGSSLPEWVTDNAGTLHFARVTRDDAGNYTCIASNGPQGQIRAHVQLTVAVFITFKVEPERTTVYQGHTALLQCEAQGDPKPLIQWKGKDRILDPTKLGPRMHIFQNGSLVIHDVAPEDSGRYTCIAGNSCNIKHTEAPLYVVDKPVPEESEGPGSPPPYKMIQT
On the procedure:
(§3) The affinity of the anti-PTK7/TROP2 bispecific antibodies to His-tagged human TROP2 protein (hTROP2-His, ACRO Biosystems Inc., Cat #: TR2-H5223), His-tagged […] monkey TROP2 protein (cTROP2-His, ACRO Biosystems Inc., Cat #: Cat: TR2-R52H3), His-tagged dog TROP2 protein (dTROP2-His, ACRO Biosystems Inc., Cat #: TR2-C52H4), hPTK7-His, cPTK7-His and dPTK7-His were measured by surface plasmon resonance (SPR) using Biacore™ (Biacore, INC, Piscataway N.J.) 8K biosensor equipped with pre-immobilized Protein A sensor chips.

In experiment [4] the target is T4, His-tagged cynomolgus monkey PTK7 protein (cynomolgus monkey, UniProt A0A2K5VNI5 39-712).
T4 construct: Bought protein; also called cPTK7-His; ACRO Biosystems Cat# PT7-C52H3; not shown: His tag
T4 sequence: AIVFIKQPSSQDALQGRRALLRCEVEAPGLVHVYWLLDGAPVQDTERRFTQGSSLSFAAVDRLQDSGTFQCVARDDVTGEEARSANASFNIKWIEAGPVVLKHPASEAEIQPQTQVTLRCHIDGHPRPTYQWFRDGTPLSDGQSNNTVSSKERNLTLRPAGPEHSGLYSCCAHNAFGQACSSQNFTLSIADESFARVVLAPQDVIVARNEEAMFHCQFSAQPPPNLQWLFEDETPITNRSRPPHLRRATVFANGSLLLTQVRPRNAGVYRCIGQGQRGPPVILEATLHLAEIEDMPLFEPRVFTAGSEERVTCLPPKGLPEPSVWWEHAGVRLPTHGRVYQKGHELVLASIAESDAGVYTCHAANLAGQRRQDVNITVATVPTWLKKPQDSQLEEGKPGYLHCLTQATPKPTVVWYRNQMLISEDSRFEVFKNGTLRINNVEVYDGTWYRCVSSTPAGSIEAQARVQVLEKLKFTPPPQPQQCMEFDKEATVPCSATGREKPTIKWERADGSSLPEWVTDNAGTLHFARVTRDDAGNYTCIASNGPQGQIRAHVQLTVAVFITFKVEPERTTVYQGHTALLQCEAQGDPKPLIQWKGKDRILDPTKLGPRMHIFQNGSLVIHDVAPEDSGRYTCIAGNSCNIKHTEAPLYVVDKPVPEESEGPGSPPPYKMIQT
On the procedure: as §3

Experiment [5] deals with T5, His-tagged dog PTK7 protein (dog, UniProt Q13308 31-703 (human entry)).
T5 construct: also called dPTK7-His
T5 chain: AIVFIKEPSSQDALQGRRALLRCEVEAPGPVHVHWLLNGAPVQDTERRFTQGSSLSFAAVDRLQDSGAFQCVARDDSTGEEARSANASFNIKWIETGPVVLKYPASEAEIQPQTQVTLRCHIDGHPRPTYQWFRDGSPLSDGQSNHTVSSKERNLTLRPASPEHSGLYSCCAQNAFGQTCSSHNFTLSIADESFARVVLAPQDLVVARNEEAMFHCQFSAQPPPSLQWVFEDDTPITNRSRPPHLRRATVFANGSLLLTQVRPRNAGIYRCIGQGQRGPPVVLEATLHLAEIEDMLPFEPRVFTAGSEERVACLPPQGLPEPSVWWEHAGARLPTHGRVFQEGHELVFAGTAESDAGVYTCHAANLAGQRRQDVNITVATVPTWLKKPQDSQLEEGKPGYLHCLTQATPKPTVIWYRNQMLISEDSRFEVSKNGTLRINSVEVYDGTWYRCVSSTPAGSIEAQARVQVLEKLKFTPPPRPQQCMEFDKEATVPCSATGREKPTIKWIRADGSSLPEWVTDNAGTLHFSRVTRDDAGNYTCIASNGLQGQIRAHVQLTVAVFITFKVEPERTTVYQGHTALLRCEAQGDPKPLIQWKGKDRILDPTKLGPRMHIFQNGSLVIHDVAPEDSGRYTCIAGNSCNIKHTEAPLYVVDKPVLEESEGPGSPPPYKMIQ
The protocol:
as §3

For experiment [6], the target named is T1, His-tagged human TROP2 protein. The protocol:
as §3
This is another data set of the same source.

In experiment [7] the target is T2, His-tagged monkey TROP2 protein. The source holds these as a separate data set.

Where two headings read alike, the source gives them in different places.

B1: DS-1062 analog-LALA (antibody, V domains shown)
VH: QVQLVQSGAEVKKPGASVKVSCKASGYTFTTAGMQWVRQAPGQGLEWMGWINTHSGVPKYAEDFKGRVTISADTSTSTAYLQLSSLKSEDTAVYYCARSGFGSSYWYFDVWGQGTLVTVSS
VL: DIQMTQSPSSLSASVGDRVTITCKASQDVSTAVAWYQQKPGKAPKLLIYSASYRYTGVPSRFSGSGSGTDFTLTISSLQPEDFAVYYCQQHYITPLTFGQGTKLEIKR
notes: also called DS-1062 analog with LALA mutations
Broadly, the Kd is a measure of binding affinity in units of concentration. One may read the koff as the first-order rate constant of dissociation. For orientation: kon means the rate constant with which the complex forms. In experiment [1], B1 had a dissociation constant Kd of 37 nM, an off-rate (koff) of 0.00411 s⁻¹ and a kon of 111000 M⁻¹ s⁻¹. In experiment [2], the Kd came out at 32.5 nM, the off-rate constant (koff) was 0.00409 s⁻¹ and the on-rate (kon) came out at 126000 M⁻¹ s⁻¹.

B2: 18F12 (antibody, V domains shown)
VH: QLQLKESGPGLVKPSETLSLTCTVSGGSISYYYWSWIRQPPGMGLEWIGNIYYSGDTNYNPSLRSRVTISIDMSKNQFSLRLNSVTAADTAVYYCARYDMFKWNYEAFDVWGQGTMVTVSS
VL: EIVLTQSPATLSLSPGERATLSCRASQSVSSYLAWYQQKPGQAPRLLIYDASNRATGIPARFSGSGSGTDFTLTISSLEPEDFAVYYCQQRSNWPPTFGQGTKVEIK
notes: also called anti-TROP2 antibody 18F12
In experiment [1], B2 returned an equilibrium dissociation constant (Kd) of 7.16 nM, a koff of 0.00511 s⁻¹ and a kon of 713000 M⁻¹ s⁻¹. For the same molecule, in experiment [2], binding was characterised by a dissociation constant (Kd) of 5.41 nM, the koff amounted to 0.00435 s⁻¹ and the kon is 803000 M⁻¹ s⁻¹.

B3: 3E6-6F7 (bispecific antibody, V domains shown)
VH 1: QVQLVESGAEVKKPGESLRISCRGSGYSFTSYWISWVRQMPGKGLEWMGRIDPSDSYTKYSPSFQGHVTISADKSISTAYLQWSSLKASDTAMYYCARRDGDYFDFDYWGQGTLVTVSS
VH 2: EVQLVQSGPGLVKPSETLSLTCTVSGGSIDSGYYYWGWIRQPPGKGLEWIGSIYYIGTTYYIPSLKSRVTISVDTSKNRFSLKLTSVTAADTAVYYCARQPITVAGHDAFDIWGQGTMVTVSS
VL: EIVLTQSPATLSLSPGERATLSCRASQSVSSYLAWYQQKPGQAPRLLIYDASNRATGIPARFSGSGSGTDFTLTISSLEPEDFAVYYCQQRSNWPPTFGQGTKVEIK
notes: also called anti-PTK7/TROP2 bispecific antibody 3E6-6F7
Take B3: the Kd in experiment [3] stood at 2.67 nM; in experiment [4] it was 4.6 nM; in experiment [5] it was 20.6 nM; in experiment [6] it was 351 nM; in experiment [7] it was 8.07 nM. In addition, the off-rate (koff) is 0.000369 s⁻¹ in experiment [3]; 0.000522 s⁻¹ in experiment [4]; 0.00197 s⁻¹ in experiment [5]; 0.0455 s⁻¹ in experiment [6]; 0.00284 s⁻¹ in experiment [7]. Moreover, the association rate constant (kon) in experiment [3] worked out at 138000 M⁻¹ s⁻¹; in experiment [4] it was 114000 M⁻¹ s⁻¹; in experiment [5], 95500 M⁻¹ s⁻¹; in experiment [6], 130000 M⁻¹ s⁻¹; in experiment [7], 352000 M⁻¹ s⁻¹.

B4: 18E9 (antibody, V domains shown)
VH: QLQLQQSGPGLLKPSETLSLTCTVSGGSISSSYYFWGWIRQPPGKGLEWIGAIYYIGNTHYNPSLKSRVTISIDTSKNQFSLNLNSVTAADTAIYYCARYEDTWNWFDPWGQGTLVTVSS
VL: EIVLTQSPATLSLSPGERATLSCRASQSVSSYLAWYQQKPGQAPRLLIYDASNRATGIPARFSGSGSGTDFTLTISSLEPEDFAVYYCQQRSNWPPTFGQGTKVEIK
notes: also called anti-TROP2 antibody 18E9
In experiment [1], B4 returned a Kd of 1.46 nM, a koff of 0.00117 s⁻¹ and an association rate constant (kon) of 798000 M⁻¹ s⁻¹. In experiment [2], the Kd is 1.2 nM, the koff was determined as 0.00132 s⁻¹ and the on-rate (kon) turned out to be 1.1e+06 M⁻¹ s⁻¹.
